Tests used:
[1] = molecular target: T1, human CD27, full length, on cells (T cells, transfected HEK293F cells, Daudi cells, NFκB-luc2/CD27 Jurkat … (human, UniProt P26842 20-240)); test: flow cytometry on T cells in human PBMC (endogenous CD27), PE goat anti-human IgG, median MFI PE
T1 construct: Residues 1-19 are stated to be the signal peptide; also called TNFRSF7
T1 sequence: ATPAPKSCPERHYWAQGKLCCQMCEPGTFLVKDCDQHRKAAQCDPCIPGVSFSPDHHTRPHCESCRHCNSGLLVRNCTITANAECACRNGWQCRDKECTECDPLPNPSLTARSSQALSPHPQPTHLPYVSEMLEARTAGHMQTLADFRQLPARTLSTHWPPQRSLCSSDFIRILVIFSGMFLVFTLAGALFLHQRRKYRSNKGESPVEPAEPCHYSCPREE
Method: (§1) Non-binding control antibody IgG1-b12-FEAR was used as negative control antibody. *N.B. IgG1-CD27-A, -B, -C, -D and -E carried mutations F405L-L234F-L235E-D265A in the IgG Fc domain, which are functionally irrelevant in the context of this experiment.
(§2) Cells were seeded in 96-Wells plates (100,000 cells per well; Greiner Bio-one, Cat #650180) for sequential incubations, with washing steps in between with FACS buffer, consisting of PBS (Lonza, Cat #BE17-517Q)+1% BSA (Roche, Cat #10735086001)+0.02% Sodium Azide (Bio-World, Cat #41920044-3). The following incubations were applied: antibody concentration series (0.0001-10 μg/mL final concentration) for 30 min at 4° C.; live/dead marker FVS510 (BD, Cat #564406, diluted 1:1,000 in PBS) for 20 min at RT; PE-labeled polyclonal goat anti-human IgG (Jackson Immuno Research, Cat #109-116-098, diluted 1:500) for 30 min at 4° C.; and anti-CD3 antibody for T-cell identification (anti-human CD3: BD, Cat #555335, diluted 1:10; anti-cyno CD3: Miltenyi, Cat #130-091-998, diluted 1:10) for 30 min at 4° C. All samples were analyzed on a FACSCelesta flow cytometer (BD) and FlowJo software. Data were processed and visualized using GraphPad Prism.

[2] = molecular target: T2, cynomolgus monkey CD27, full length, on cells (cynomolgus T cells, transfected HEK293F cells) (cynomolgus monkey (Macaca fascicularis), UniProt P26842 20-260 (human entry)); test: flow cytometry on HEK293F cells transfected with cynomolgus CD27, PE goat anti-human IgG, median MFI PE
T2 construct: also called cyno CD27
T2 chain: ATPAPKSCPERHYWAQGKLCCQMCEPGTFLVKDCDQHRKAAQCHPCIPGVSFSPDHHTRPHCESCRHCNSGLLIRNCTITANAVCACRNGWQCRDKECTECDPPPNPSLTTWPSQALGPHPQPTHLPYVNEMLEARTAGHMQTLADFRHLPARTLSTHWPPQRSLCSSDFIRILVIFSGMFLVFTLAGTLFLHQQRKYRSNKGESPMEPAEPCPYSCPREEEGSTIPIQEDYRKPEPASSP
Method: as §1, §2

[3] = molecular target: T2, cynomolgus monkey CD27, full length, on …; test: flow cytometry on T cells in cynomolgus PBMC (endogenous CD27), PE goat anti-human IgG, median MFI PE
Method: as §1, §2

[4] = molecular target: T1, human CD27, full length, on cells (T …); test: flow cytometry on HEK293F cells transfected with human CD27, PE goat anti-human IgG, median MFI PE
[5] = molecular target: T3, human C1q (from normal human serum) (human, UniProt P02745 23-245; P02746 28-253; P02747 29-245); test: flow cytometry, C1q (20% normal human serum) on human T cells pre-incubated with the antibody, FITC rabbit anti-human C1q, median MFI FITC; antibody concentration varied
T3 construct: 20% normal human serum was the source of C1q
T3 sequence (P02745 23-245 limits assumed, chain 1 of 3): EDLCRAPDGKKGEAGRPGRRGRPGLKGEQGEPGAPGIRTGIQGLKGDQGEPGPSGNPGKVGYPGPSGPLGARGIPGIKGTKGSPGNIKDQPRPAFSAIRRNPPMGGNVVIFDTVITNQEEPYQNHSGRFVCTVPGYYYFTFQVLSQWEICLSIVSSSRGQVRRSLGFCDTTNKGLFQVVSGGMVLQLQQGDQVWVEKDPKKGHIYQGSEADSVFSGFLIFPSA
T3 sequence (P02746 28-253 limits assumed, chain 2 of 3): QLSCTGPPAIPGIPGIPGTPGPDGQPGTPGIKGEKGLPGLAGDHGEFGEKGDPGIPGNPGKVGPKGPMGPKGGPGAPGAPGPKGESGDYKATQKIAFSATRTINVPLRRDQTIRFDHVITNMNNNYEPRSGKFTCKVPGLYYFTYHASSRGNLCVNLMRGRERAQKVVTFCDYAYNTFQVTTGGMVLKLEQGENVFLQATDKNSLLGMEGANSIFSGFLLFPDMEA
T3 sequence (P02747 29-245 limits assumed, chain 3 of 3): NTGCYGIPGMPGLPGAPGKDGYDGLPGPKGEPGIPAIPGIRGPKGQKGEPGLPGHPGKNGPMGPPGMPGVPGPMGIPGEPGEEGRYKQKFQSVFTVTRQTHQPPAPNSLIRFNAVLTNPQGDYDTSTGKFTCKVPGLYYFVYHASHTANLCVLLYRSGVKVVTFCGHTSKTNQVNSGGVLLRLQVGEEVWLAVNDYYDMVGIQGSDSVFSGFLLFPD
Method: The P329R mutation was previously described to reduce interaction of IgG1 antibodies with C1q and FcgR (Overdijk et al, Molecular Cancer Therapeutics 2020). The effect of the P329R mutation on C1q binding of IgG1-CD27-A comprising the E345R mutation was tested in cellular C1q binding assays in vitro using human healthy donor T cells. Anti-HIV gp120 antibody IgG1-b12-F405L was used as non-binding isotype control antibody (ctrl). […] T cells (2×10⁶ cells/well) were pre-incubated in polystyrene 96-well round-bottom plates with antibody dilution series (8× five-fold dilution starting at 15 μg/mL final assay concentration) for 15 min at 37° C. to allow the antibodies to bind to the T cells. Then, cells were cooled on ice, supplemented with NHS as a source of human C1q (20% NHS final assay concentration) and incubated on ice for 45 min. Cells were subsequently incubated on ice with FITC-labeled Rabbit anti-human C1q antibody (DAKO, Cat #F0254; 20 μg/mL) for 30 min and resuspended in FACS buffer with TO-PRO-3 (ThermoFisher, Cat #T3605; 1:5,000 dilution). C1q binding was determined by flow cytometry measuring the FITC signal on live cells.

B1: IgG1-CD27-A carrying F405L-L234F-L235E-D265A in the IgG Fc domain (antibody)
heavy: QVQLMQSGSELKKPGASVKVSCRASGYTFTTYAMNWVRQAPGQGPEWMGWINTNTGNPTYAQGFTGRFVFSLDTTVTTTYLQISSLKAEDTAVYFCAREAGSFDYWGQGTLVTVSSASTKGPSVFPLAPSSKSTSGGTAALGCLVKDYFPEPVTVSWNSGALTSGVHTFPAVLQSSGLYSLSSVVTVPSSSLGTQTYICNVNHKPSNTKVDKRVEPKSCDKTHTCPPCPAPEFEGGPSVFLFPPKPKDTLMISRTPEVTCVVVAVSHEDPEVKFNWYVDGVEVHNAKTKPREEQYNSTYRVVSVLTVLHQDWLNGKEYKCKVSNKALPAPIEKTISKAKGQPREPQVYTLPPSREEMTKNQVSLTCLVKGFYPSDIAVEWESNGQPENNYKTTPPVLDSDGSFLLYSKLTVDKSRWQQGNVFSCSVMHEALHNHYTQKSLSLSPGK
light: QSALTQPASVSGSPGQSITISCTGTSSDVYYYNYVSWYQQHPGRAPKLVIYDVSNRPSGVSNRFSGSKSGNTASLTISGLRAEDEADYYCSSYTVNRVWVFGGGTKLTVLGQPKAAPSVTLFPPSSEELQANKATLVCLISDFYPGAVTVAWKADSSPVKAGVETTTPSKQSNNKYAASSYLSLTPEQWKSHRSYSCQVTHEGSTVEKTVAPTECS
[1]
  EC50 (read off the curve): ~0.04 µg/mL
[2]
  EC50 (read off the curve): ~0.06 µg/mL
[3]
  EC50 (read off the curve): ~0.04 µg/mL
[4]
  EC50 (read off the curve): ~0.1 µg/mL

B2: IgG1-CD27-A (wild-type IgG1 Fc) (antibody)
heavy: not shown
light: B1 light
notes: also called WT IgG1-CD27-A; IgG-CD27-A
[5]
  binding result: no binding (tested: 15 µg/mL)

B3: IgG1-CD27-A-E345R (antibody)
heavy: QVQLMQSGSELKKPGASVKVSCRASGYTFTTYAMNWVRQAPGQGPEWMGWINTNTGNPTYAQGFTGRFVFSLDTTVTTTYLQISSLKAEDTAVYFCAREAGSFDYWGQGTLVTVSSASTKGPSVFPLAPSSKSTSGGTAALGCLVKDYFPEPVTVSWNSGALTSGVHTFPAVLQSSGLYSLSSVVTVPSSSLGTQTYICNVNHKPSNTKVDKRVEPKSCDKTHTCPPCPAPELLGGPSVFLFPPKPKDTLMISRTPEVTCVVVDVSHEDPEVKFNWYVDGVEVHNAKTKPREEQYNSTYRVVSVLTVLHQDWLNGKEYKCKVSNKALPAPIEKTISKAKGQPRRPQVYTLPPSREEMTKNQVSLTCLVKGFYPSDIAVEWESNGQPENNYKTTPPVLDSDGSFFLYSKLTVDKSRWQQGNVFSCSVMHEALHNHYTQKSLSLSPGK
light: B1 light
notes: also called IgG-CD27-A-E345R
[5]
  binding result: binds

B4: IgG1-CD27-A-E430G (antibody)
heavy: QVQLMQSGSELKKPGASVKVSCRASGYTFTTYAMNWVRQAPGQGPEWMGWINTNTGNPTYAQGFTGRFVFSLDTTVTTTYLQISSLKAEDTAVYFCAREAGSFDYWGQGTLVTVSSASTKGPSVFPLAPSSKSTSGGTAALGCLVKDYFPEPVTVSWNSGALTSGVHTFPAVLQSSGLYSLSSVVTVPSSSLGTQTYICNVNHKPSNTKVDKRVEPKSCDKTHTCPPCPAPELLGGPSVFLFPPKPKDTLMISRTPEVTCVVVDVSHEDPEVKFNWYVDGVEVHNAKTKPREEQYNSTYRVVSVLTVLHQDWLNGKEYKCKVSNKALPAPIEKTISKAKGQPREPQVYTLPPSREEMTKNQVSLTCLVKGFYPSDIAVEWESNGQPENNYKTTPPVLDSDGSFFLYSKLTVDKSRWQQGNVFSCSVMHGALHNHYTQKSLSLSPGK
light: B1 light
[5]
  EC50 (read off the curve): ~0.03 µg/mL
